Where a chain is given by its changes, count along the chain named.
T1: ARHGAP21, Q5T5U3
T1 sequence (Q5T5U3 45-169, limits assumed, looked up): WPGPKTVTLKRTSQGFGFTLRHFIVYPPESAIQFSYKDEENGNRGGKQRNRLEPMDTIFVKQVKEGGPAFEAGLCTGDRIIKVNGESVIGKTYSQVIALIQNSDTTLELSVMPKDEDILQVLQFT

T2: DLG3_3, Q92796
T2 sequence (Q92796 374-475, limits assumed, looked up): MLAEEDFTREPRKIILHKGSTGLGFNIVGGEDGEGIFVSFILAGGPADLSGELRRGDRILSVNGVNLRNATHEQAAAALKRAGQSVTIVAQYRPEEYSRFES

T3: LIN7A, O14910
T3 sequence (O14910 103-200, limits assumed, looked up): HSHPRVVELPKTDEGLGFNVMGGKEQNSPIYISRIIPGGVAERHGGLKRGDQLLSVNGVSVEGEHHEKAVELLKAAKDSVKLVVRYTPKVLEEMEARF

T4: LIN7B, Q9HAP6
T4 sequence (Q9HAP6 88-185, limits assumed, looked up): T3 sequence (O14910 103-200, limits assumed, looked up) with S2A, V20I, I35V, E42D, H65Q, K77Q, D78G, K89R

T5: MPDZ_5, O75970
T5 sequence (O75970 695-796, limits assumed, looked up): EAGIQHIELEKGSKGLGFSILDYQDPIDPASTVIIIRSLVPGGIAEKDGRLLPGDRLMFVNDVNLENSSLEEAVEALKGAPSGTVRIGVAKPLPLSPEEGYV

T6: PARD3B_1, Q8TEW8
T6 sequence (Q8TEW8 196-299, limits assumed, looked up): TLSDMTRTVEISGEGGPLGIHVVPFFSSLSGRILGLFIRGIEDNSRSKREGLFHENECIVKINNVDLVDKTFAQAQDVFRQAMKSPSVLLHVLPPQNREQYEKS

T7: PCLO, Q9Y6V0
T7 sequence (Q9Y6V0 4491-4600, limits assumed, looked up): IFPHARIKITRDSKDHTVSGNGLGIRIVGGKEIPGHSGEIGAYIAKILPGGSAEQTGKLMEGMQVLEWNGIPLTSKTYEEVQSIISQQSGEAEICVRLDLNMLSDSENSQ

T8: PDZD7_3, Q9H5P4
T8 sequence (Q9H5P4 857-944, limits assumed, looked up): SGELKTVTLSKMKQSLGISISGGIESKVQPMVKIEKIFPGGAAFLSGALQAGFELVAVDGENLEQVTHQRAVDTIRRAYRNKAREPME

T9: SNTG2, Q9NY99
T9 sequence (Q9NY99 68-166, limits assumed, looked up): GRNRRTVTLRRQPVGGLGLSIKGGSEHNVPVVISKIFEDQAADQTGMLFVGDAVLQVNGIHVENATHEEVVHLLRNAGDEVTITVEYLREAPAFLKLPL

T10: TX1BP3, O14907
T10 sequence (O14907 10-122, limits assumed, looked up): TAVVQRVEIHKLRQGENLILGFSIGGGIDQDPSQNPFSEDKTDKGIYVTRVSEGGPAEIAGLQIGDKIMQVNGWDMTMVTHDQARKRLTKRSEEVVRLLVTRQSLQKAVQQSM


molecular target: T1, ARHGAP21, Q5T5U3; test: holdup assay; design: key: below the threshold = too weak to quantify, mostly under pKd 3.1 to 4; settings: plain residues with an end cap or a label only (N-terminal biotin on a linker: ttds)

Binder | pKd
RHTTSTETAV [HPV30-E6, P36809] | below the threshold

molecular target: DLG1_1, Q12959; test: holdup assay; design: key: below the threshold = too weak to quantify, mostly under pKd 3.1 to 4; settings: plain residues with an end cap or a label only (N-terminal biotin on a linker: ttds)

Binder | pKd
RHTTSTETAV [HPV30-E6, P36809] | 4.93

molecular target: DLG1_2, Q12959; test: holdup assay; design: key: below the threshold = too weak to quantify, mostly under pKd 3.1 to 4; settings: plain residues with an end cap or a label only (N-terminal biotin on a linker: ttds)

Binder | pKd
RHTTSTETAV [HPV30-E6, P36809] | 5.63

molecular target: DLG1_3, Q12959; test: holdup assay; design: key: below the threshold = too weak to quantify, mostly under pKd 3.1 to 4; settings: plain residues with an end cap or a label only (N-terminal biotin on a linker: ttds)

Binder | pKd
RHTTSTETAV [HPV30-E6, P36809] | 4.39

molecular target: DLG2_2, Q15700; test: holdup assay; design: key: below the threshold = too weak to quantify, mostly under pKd 3.1 to 4; settings: plain residues with an end cap or a label only (N-terminal biotin on a linker: ttds)
Sequence (Q15700 189-283): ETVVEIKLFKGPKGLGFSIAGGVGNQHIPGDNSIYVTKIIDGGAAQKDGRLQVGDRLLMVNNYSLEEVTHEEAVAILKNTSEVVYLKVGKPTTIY

Binder | pKd
RHTTSTETAV [HPV30-E6, P36809] | 5.19

molecular target: T2, DLG3_3, Q92796; test: holdup assay; design: key: below the threshold = too weak to quantify, mostly under pKd 3.1 to 4; settings: plain residues with an end cap or a label only (N-terminal biotin on a linker: ttds)

Binder | pKd
RHTTSTETAV [HPV30-E6, P36809] | 4.66

molecular target: FRMPD4, Q14CM0; test: holdup assay; design: key: below the threshold = too weak to quantify, mostly under pKd 3.1 to 4; settings: plain residues with an end cap or a label only (N-terminal biotin on a linker: ttds)
Sequence (Q14CM0 67-160): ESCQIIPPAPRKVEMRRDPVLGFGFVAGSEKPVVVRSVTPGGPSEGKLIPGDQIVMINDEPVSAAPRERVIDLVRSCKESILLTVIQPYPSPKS

Binder | pKd
RHTTSTETAV [HPV30-E6, P36809] | below the threshold

molecular target: GRASP, Q7Z6J2; test: holdup assay; design: key: below the threshold = too weak to quantify, mostly under pKd 3.1 to 4; settings: plain residues with an end cap or a label only (N-terminal biotin on a linker: ttds)
Sequence (Q7Z6J2 96-193): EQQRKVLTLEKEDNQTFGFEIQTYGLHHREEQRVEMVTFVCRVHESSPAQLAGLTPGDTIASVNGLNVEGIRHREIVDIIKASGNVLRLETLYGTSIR

Binder | pKd
RHTTSTETAV [HPV30-E6, P36809] | 3.96

molecular target: GRIP2_3, Q9C0E4; test: holdup assay; design: key: below the threshold = too weak to quantify, mostly under pKd 3.1 to 4; settings: plain residues with an end cap or a label only (N-terminal biotin on a linker: ttds)
Sequence (Q9C0E4 238-339): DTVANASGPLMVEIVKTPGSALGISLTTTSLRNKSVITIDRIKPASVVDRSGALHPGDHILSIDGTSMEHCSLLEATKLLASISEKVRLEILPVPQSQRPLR

Binder | pKd
RHTTSTETAV [HPV30-E6, P36809] | 3.61

molecular target: GRIP2_5, Q9C0E4; test: holdup assay; design: key: below the threshold = too weak to quantify, mostly under pKd 3.1 to 4; settings: plain residues with an end cap or a label only (N-terminal biotin on a linker: ttds)
Sequence (Q9C0E4 544-642): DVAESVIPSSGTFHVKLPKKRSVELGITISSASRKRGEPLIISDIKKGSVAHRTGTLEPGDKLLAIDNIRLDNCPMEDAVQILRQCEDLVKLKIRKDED

Binder | pKd
RHTTSTETAV [HPV30-E6, P36809] | 3.75

molecular target: GRIP2_7, Q9C0E4; test: holdup assay; design: key: below the threshold = too weak to quantify, mostly under pKd 3.1 to 4; settings: plain residues with an end cap or a label only (N-terminal biotin on a linker: ttds)
Sequence (Q9C0E4 934-1023): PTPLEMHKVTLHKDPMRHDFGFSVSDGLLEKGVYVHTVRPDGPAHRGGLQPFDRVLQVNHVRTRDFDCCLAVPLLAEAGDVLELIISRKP

Binder | pKd
RHTTSTETAV [HPV30-E6, P36809] | 3.84

molecular target: IL16_3, Q14005; test: holdup assay; design: key: below the threshold = too weak to quantify, mostly under pKd 3.1 to 4; settings: plain residues with an end cap or a label only (N-terminal biotin on a linker: ttds)
Sequence (Q14005 1107-1207): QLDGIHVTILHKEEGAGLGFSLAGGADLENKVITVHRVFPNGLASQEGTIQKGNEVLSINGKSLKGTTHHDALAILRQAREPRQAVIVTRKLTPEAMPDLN

Binder | pKd
RHTTSTETAV [HPV30-E6, P36809] | below the threshold

molecular target: Inadl_10, Q8NI35; test: holdup assay; design: key: below the threshold = too weak to quantify, mostly under pKd 3.1 to 4; settings: plain residues with an end cap or a label only (N-terminal biotin on a linker: ttds)
Sequence (Q8NI35 1673-1763): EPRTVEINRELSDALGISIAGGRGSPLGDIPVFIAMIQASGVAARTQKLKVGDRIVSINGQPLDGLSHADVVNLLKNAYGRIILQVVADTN

Binder | pKd
RHTTSTETAV [HPV30-E6, P36809] | below the threshold

molecular target: Inadl_5, Q8NI35; test: holdup assay; design: key: below the threshold = too weak to quantify, mostly under pKd 3.1 to 4; settings: plain residues with an end cap or a label only (N-terminal biotin on a linker: ttds)
Sequence (Q8NI35 673-780): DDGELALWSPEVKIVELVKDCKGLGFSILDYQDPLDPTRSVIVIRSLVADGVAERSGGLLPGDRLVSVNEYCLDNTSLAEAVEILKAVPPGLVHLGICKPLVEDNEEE

Binder | pKd
RHTTSTETAV [HPV30-E6, P36809] | below the threshold

molecular target: LDB3, O75112; test: holdup assay; design: key: below the threshold = too weak to quantify, mostly under pKd 3.1 to 4; settings: plain residues with an end cap or a label only (N-terminal biotin on a linker: ttds)
Sequence (O75112 1-94): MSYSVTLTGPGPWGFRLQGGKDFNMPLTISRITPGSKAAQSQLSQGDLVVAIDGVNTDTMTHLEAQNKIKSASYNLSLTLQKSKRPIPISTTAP

Binder | pKd
RHTTSTETAV [HPV30-E6, P36809] | below the threshold

molecular target: T3, LIN7A, O14910; test: holdup assay; design: key: below the threshold = too weak to quantify, mostly under pKd 3.1 to 4; settings: plain residues with an end cap or a label only (N-terminal biotin on a linker: ttds)

Binder | pKd
RHTTSTETAV [HPV30-E6, P36809] | 3.8

molecular target: T4, LIN7B, Q9HAP6; test: holdup assay; design: key: below the threshold = too weak to quantify, mostly under pKd 3.1 to 4; settings: plain residues with an end cap or a label only (N-terminal biotin on a linker: ttds)

Binder | pKd
RHTTSTETAV [HPV30-E6, P36809] | 3.71

molecular target: LNX1_3, Q8TBB1; test: holdup assay; design: key: below the threshold = too weak to quantify, mostly under pKd 3.1 to 4; settings: plain residues with an end cap or a label only (N-terminal biotin on a linker: ttds)
Sequence (Q8TBB1 500-596): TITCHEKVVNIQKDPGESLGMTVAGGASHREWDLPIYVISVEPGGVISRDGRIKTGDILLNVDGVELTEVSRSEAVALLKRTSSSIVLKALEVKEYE

Binder | pKd
RHTTSTETAV [HPV30-E6, P36809] | below the threshold

molecular target: MAGI3_2, Q5TCQ9; test: holdup assay; design: key: below the threshold = too weak to quantify, mostly under pKd 3.1 to 4; settings: plain residues with an end cap or a label only (N-terminal biotin on a linker: ttds)
Sequence (Q5TCQ9 398-503): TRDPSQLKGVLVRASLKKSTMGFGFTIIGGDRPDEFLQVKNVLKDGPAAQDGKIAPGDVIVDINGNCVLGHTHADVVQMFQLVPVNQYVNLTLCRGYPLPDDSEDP

Binder | pKd
RHTTSTETAV [HPV30-E6, P36809] | 5.36

molecular target: MAST2, Q6P0Q8; test: holdup assay; design: key: below the threshold = too weak to quantify, mostly under pKd 3.1 to 4; settings: plain residues with an end cap or a label only (N-terminal biotin on a linker: ttds)
Sequence (Q6P0Q8 1099-1202): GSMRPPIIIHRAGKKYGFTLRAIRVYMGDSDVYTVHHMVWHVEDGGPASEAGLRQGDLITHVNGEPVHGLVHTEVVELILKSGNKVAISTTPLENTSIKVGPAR

Binder | pKd
RHTTSTETAV [HPV30-E6, P36809] | 5.52

molecular target: T5, MPDZ_5, O75970; test: holdup assay; design: key: below the threshold = too weak to quantify, mostly under pKd 3.1 to 4; settings: plain residues with an end cap or a label only (N-terminal biotin on a linker: ttds)

Binder | pKd
RHTTSTETAV [HPV30-E6, P36809] | below the threshold

molecular target: T6, PARD3B_1, Q8TEW8; test: holdup assay; design: key: below the threshold = too weak to quantify, mostly under pKd 3.1 to 4; settings: plain residues with an end cap or a label only (N-terminal biotin on a linker: ttds)

Binder | pKd
RHTTSTETAV [HPV30-E6, P36809] | below the threshold

molecular target: T7, PCLO, Q9Y6V0; test: holdup assay; design: key: below the threshold = too weak to quantify, mostly under pKd 3.1 to 4; settings: plain residues with an end cap or a label only (N-terminal biotin on a linker: ttds)

Binder | pKd
RHTTSTETAV [HPV30-E6, P36809] | below the threshold

molecular target: T8, PDZD7_3, Q9H5P4; test: holdup assay; design: key: below the threshold = too weak to quantify, mostly under pKd 3.1 to 4; settings: plain residues with an end cap or a label only (N-terminal biotin on a linker: ttds)

Binder | pKd
RHTTSTETAV [HPV30-E6, P36809] | 4.1

molecular target: PICK1, Q9NRD5; test: holdup assay; design: key: below the threshold = too weak to quantify, mostly under pKd 3.1 to 4; settings: plain residues with an end cap or a label only (N-terminal biotin on a linker: ttds)
Sequence (Q9NRD5 17-115): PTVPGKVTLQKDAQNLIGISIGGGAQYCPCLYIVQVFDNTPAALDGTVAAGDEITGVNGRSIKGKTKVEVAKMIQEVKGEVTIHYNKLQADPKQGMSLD

Binder | pKd
RHTTSTETAV [HPV30-E6, P36809] | below the threshold

molecular target: T9, SNTG2, Q9NY99; test: holdup assay; design: key: below the threshold = too weak to quantify, mostly under pKd 3.1 to 4; settings: plain residues with an end cap or a label only (N-terminal biotin on a linker: ttds)

Binder | pKd
RHTTSTETAV [HPV30-E6, P36809] | 4.67

molecular target: TJP1_3, Q07157; test: holdup assay; design: key: below the threshold = too weak to quantify, mostly under pKd 3.1 to 4; settings: plain residues with an end cap or a label only (N-terminal biotin on a linker: ttds)
Sequence (Q07157 416-512): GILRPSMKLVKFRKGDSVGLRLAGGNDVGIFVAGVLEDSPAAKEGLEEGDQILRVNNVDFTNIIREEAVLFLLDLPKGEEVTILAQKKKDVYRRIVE

Binder | pKd
RHTTSTETAV [HPV30-E6, P36809] | below the threshold

molecular target: T10, TX1BP3, O14907; test: holdup assay; design: key: below the threshold = too weak to quantify, mostly under pKd 3.1 to 4; settings: plain residues with an end cap or a label only (N-terminal biotin on a linker: ttds)

Binder | pKd
RHTTSTETAV [HPV30-E6, P36809] | 4.65

Reference: publication PMC9482650, “Quantitative fragmentomics allow affinity mapping of interactomes” (Nature Communications, 2022)
